According to the supplement of paper PMC9112550, “Optimization of the antimicrobial peptide Bac7 by deep mutational scanning” (BMC Biology, 2022):

Test system: Escherichia coli TOP10
Experiment: shrunken log2 fold change of peptide-encoding DNA abundance (4.5 h post-induction vs induction); higher = less antimicrobial activity (less host growth inhibition)
Settings: time post-induction: 4.5 h; library: site-saturation at positions 5, 18, 19, 20
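Note: peptides expressed intracellularly from a pBAD plasmid library in pooled LB shake-flask culture, induced with 0.3% L-arabinose, DNA abundance read by NGS, three biological replicates, DESeq2 with apeglm shrinkage.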

| Sequence | shrunken log2 fold change |
| --- | --- |
| RRIRGRPPRLPRPRPRPKFEPRP | 0.411 |
| RRIRGRPPRLPRPRPRPKFGPRP | 0.241 |
| RRIRGRPPRLPRPRPRPKGGPRP | 0.901 |
| RRIRGRPPRLPRPRPRPKGHPRP | 0.67 |
| RRIRGRPPRLPRPRPRPKGQPRP | 0.184 |
| RRIRGRPPRLPRPRPRPKGRPRP | 0.792 |
| RRIRGRPPRLPRPRPRPKGWPRP | 1.46 |
| RRIRGRPPRLPRPRPRPKHEPRP | 0.679 |
| RRIRGRPPRLPRPRPRPKHNPRP | 0.203 |
| RRIRGRPPRLPRPRPRPKHWPRP | 0.646 |
| RRIRGRPPRLPRPRPRPKISPRP | 0.477 |
| RRIRGRPPRLPRPRPRPKKGPRP | 0.765 |
| RRIRGRPPRLPRPRPRPKLHPRP | 0.64 |
| RRIRGRPPRLPRPRPRPKLKPRP | 0.862 |
| RRIRGRPPRLPRPRPRPKMAPRP | 0.0451 |
| RRIRGRPPRLPRPRPRPKMIPRP | 0.425 |
| RRIRGRPPRLPRPRPRPKMLPRP | 0.509 |
| RRIRGRPPRLPRPRPRPKNDPRP | 0.698 |
| RRIRGRPPRLPRPRPRPKNGPRP | 0.0583 |
| RRIRGRPPRLPRPRPRPKNQPRP | 0.551 |
| RRIRGRPPRLPRPRPRPKQAPRP | 0.865 |
| RRIRGRPPRLPRPRPRPKQDPRP | 0.881 |
| RRIRGRPPRLPRPRPRPKRAPRP | 1.11 |
| RRIRGRPPRLPRPRPRPKRDPRP | 0.738 |
| RRIRGRPPRLPRPRPRPKRFPRP | -0.0242 |

| Sequence | shrunken log2 fold change |
| --- | --- |
| RRIRGRPPRLPRPRPRPKSHPRP | 0.536 |
| RRIRGRPPRLPRPRPRPKSMPRP | 0.366 |
| RRIRGRPPRLPRPRPRPKSYPRP | 0.685 |
| RRIRGRPPRLPRPRPRPKTAPRP | 0.808 |
| RRIRGRPPRLPRPRPRPKTVPRP | 0.662 |
| RRIRGRPPRLPRPRPRPKWCPRP | 0.113 |
| RRIRGRPPRLPRPRPRPKYIPRP | 0.167 |
| RRIRGRPPRLPRPRPRPLAGPRP | 0.887 |
| RRIRGRPPRLPRPRPRPLAVPRP | 0.809 |
| RRIRGRPPRLPRPRPRPLCVPRP | 0.689 |
| RRIRGRPPRLPRPRPRPLCWPRP | 0.774 |
| RRIRGRPPRLPRPRPRPLDNPRP | 0.244 |
| RRIRGRPPRLPRPRPRPLGQPRP | 0.756 |
| RRIRGRPPRLPRPRPRPLIWPRP | 0.602 |
| RRIRGRPPRLPRPRPRPLNGPRP | 0.11 |
| RRIRGRPPRLPRPRPRPLNVPRP | -0.095 |
| RRIRGRPPRLPRPRPRPLPHPRP | 0.638 |
| RRIRGRPPRLPRPRPRPLQIPRP | 0.803 |
| RRIRGRPPRLPRPRPRPLQTPRP | 1.59 |
| RRIRGRPPRLPRPRPRPLRGPRP | 1.29 |
| RRIRGRPPRLPRPRPRPLSHPRP | 0.557 |
| RRIRGRPPRLPRPRPRPLTAPRP | 0.998 |
| RRIRGRPPRLPRPRPRPLTTPRP | 1.82 |
| RRIRGRPPRLPRPRPRPLWWPRP | 0.458 |
| RRIRGRPPRLPRPRPRPMAWPRP | 0.743 |

| Sequence | shrunken log2 fold change |
| --- | --- |
| RRIRGRPPRLPRPRPRPMDAPRP | 0.322 |
| RRIRGRPPRLPRPRPRPMDFPRP | 0.213 |
| RRIRGRPPRLPRPRPRPMDGPRP | -0.0481 |
| RRIRGRPPRLPRPRPRPMFDPRP | 0.662 |
| RRIRGRPPRLPRPRPRPMFPPRP | 0.193 |
| RRIRGRPPRLPRPRPRPMGGPRP | 0.458 |
| RRIRGRPPRLPRPRPRPMGMPRP | 0.886 |
| RRIRGRPPRLPRPRPRPMIYPRP | 0.0378 |
| RRIRGRPPRLPRPRPRPMKKPRP | 1.17 |
| RRIRGRPPRLPRPRPRPMLRPRP | 0.117 |
| RRIRGRPPRLPRPRPRPMNQPRP | 0.0945 |
| RRIRGRPPRLPRPRPRPMNRPRP | 0.022 |
| RRIRGRPPRLPRPRPRPMQCPRP | -0.0159 |
| RRIRGRPPRLPRPRPRPMTEPRP | 0.0819 |
| RRIRGRPPRLPRPRPRPMWFPRP | 0.185 |
| RRIRGRPPRLPRPRPRPMWKPRP | 0.0121 |
| RRIRGRPPRLPRPRPRPNADPRP | 2.38 |
| RRIRGRPPRLPRPRPRPNAIPRP | 0.668 |
| RRIRGRPPRLPRPRPRPNCMPRP | 0.196 |
| RRIRGRPPRLPRPRPRPNCNPRP | 0.199 |
| RRIRGRPPRLPRPRPRPNEEPRP | 0.621 |
| RRIRGRPPRLPRPRPRPNGEPRP | 1.81 |
| RRIRGRPPRLPRPRPRPNHDPRP | -0.185 |
| RRIRGRPPRLPRPRPRPNIFPRP | 0.398 |
| RRIRGRPPRLPRPRPRPNLTPRP | 0.374 |
